Results reported in publication PMC5775349.

Tests used:
[1] = molecular target: 40S ribosomes of cells with WT uS7 (S. cerevisiae | S. cerevisiae (endogenous in yeast cells)) (UniProt P26783); assay: co-sedimentation; yeast lysate in TSM buffer (10 mM Tris-HCl pH7.4, 100 mM NaCl, 30 mM MgCl2), 10-40% sucrose gradient ultracentrifugation; fractions blotted with anti-HA and anti-Rio2; densitometry, duplicate experiments
[2] = molecular target: 40S ribosomes of S223A cells (S. cerevisiae | S. cerevisiae (endogenous in yeast cells)) (UniProt P26783); assay: as above

Which percent of Rio2 in the 40S fraction [1] does the source give for “Rio2, endogenous (from UniProt P40160 1-425) (natural protein)” here?
Its percent of Rio2 in the 40S fraction is 41%.

What about the percent of Rio2 in the 40S fraction [2] of the same substance?
The percent of Rio2 in the 40S fraction was 28%.
